Reference: the Human Domainome abundance scans (Beltran et al. 2025)
± gives the uncertainty stated by the source.

B1: Far upstream element-binding protein 1, residues 98 to 169; numbered along this chain, Q96AE4 (parent)
chain: RSVMTEEYKVPDGMVGFIIGRGGEQISRIQQESGCKIQIAPDSGGLPERSCMLTGTPESVQSAKRLLDQIVE

Variants of: B1
Test: abundance fitness (aPCA) (normalised: wild type 0, dead -1); higher = more abundant; growth selection in yeast, the domain comes from the species named
Settings: Homo sapiens

Going from RSVHTEEYKVPDGMVGFIIGRGGEQISRIQQESGCKIQIAPDSGGLPERSCMLTGTPESVQSAKRLLDQIVE [M4H] to RSVCTEEYKVPDGMVGFIIGRGGEQISRIQQESGCKIQIAPDSGGLPERSCMLTGTPESVQSAKRLLDQIVE [M4C], the abundance fitness rises from -0.074 ± 0.045 to 0.01 ± 0.032.

Going from RSVGTEEYKVPDGMVGFIIGRGGEQISRIQQESGCKIQIAPDSGGLPERSCMLTGTPESVQSAKRLLDQIVE [M4G] to RSVPTEEYKVPDGMVGFIIGRGGEQISRIQQESGCKIQIAPDSGGLPERSCMLTGTPESVQSAKRLLDQIVE [M4P], the abundance fitness falls from -0.133 ± 0.023 to -0.245 ± 0.032.

RSVTTEEYKVPDGMVGFIIGRGGEQISRIQQESGCKIQIAPDSGGLPERSCMLTGTPESVQSAKRLLDQIVE [M4T] and RSVDTEEYKVPDGMVGFIIGRGGEQISRIQQESGCKIQIAPDSGGLPERSCMLTGTPESVQSAKRLLDQIVE [M4D] are within error of each other in abundance fitness: -0.06 ± 0.031 for the first, -0.079 ± 0.036 for the second.

RSVITEEYKVPDGMVGFIIGRGGEQISRIQQESGCKIQIAPDSGGLPERSCMLTGTPESVQSAKRLLDQIVE [M4I] and RSVLTEEYKVPDGMVGFIIGRGGEQISRIQQESGCKIQIAPDSGGLPERSCMLTGTPESVQSAKRLLDQIVE [M4L] are within error of each other in abundance fitness: 0.015 ± 0.035 for the first, -0.033 ± 0.025 for the second.

RSVQTEEYKVPDGMVGFIIGRGGEQISRIQQESGCKIQIAPDSGGLPERSCMLTGTPESVQSAKRLLDQIVE [M4Q] and RSVSTEEYKVPDGMVGFIIGRGGEQISRIQQESGCKIQIAPDSGGLPERSCMLTGTPESVQSAKRLLDQIVE [M4S] are within error of each other in abundance fitness: -0.085 ± 0.03 for the first, -0.135 ± 0.028 for the second.

Going from RSVYTEEYKVPDGMVGFIIGRGGEQISRIQQESGCKIQIAPDSGGLPERSCMLTGTPESVQSAKRLLDQIVE [M4Y] to RSVRTEEYKVPDGMVGFIIGRGGEQISRIQQESGCKIQIAPDSGGLPERSCMLTGTPESVQSAKRLLDQIVE [M4R], the abundance fitness falls from -0.007 ± 0.041 to -0.165 ± 0.023.

RSVNTEEYKVPDGMVGFIIGRGGEQISRIQQESGCKIQIAPDSGGLPERSCMLTGTPESVQSAKRLLDQIVE [M4N] and RSVKTEEYKVPDGMVGFIIGRGGEQISRIQQESGCKIQIAPDSGGLPERSCMLTGTPESVQSAKRLLDQIVE [M4K] are within error of each other in abundance fitness: -0.027 ± 0.037 for the first, -0.053 ± 0.034 for the second.

Compared with RSVFTEEYKVPDGMVGFIIGRGGEQISRIQQESGCKIQIAPDSGGLPERSCMLTGTPESVQSAKRLLDQIVE [M4F], RSVATEEYKVPDGMVGFIIGRGGEQISRIQQESGCKIQIAPDSGGLPERSCMLTGTPESVQSAKRLLDQIVE [M4A] is lower in abundance fitness: -0.001 ± 0.035 for the first, -0.07 ± 0.027 for the second.

Going from RSVWTEEYKVPDGMVGFIIGRGGEQISRIQQESGCKIQIAPDSGGLPERSCMLTGTPESVQSAKRLLDQIVE [M4W] to RSYMTEEYKVPDGMVGFIIGRGGEQISRIQQESGCKIQIAPDSGGLPERSCMLTGTPESVQSAKRLLDQIVE [V3Y], the abundance fitness rises from -0.165 ± 0.03 to 0.003 ± 0.041.

RSQMTEEYKVPDGMVGFIIGRGGEQISRIQQESGCKIQIAPDSGGLPERSCMLTGTPESVQSAKRLLDQIVE [V3Q] and RSLMTEEYKVPDGMVGFIIGRGGEQISRIQQESGCKIQIAPDSGGLPERSCMLTGTPESVQSAKRLLDQIVE [V3L] are within error of each other in abundance fitness: -0.004 ± 0.034 for the first, -0.047 ± 0.029 for the second.

RSEMTEEYKVPDGMVGFIIGRGGEQISRIQQESGCKIQIAPDSGGLPERSCMLTGTPESVQSAKRLLDQIVE [V3E] and RSHMTEEYKVPDGMVGFIIGRGGEQISRIQQESGCKIQIAPDSGGLPERSCMLTGTPESVQSAKRLLDQIVE [V3H] are within error of each other in abundance fitness: 0.004 ± 0.029 for the first, -0.043 ± 0.041 for the second.

RSGMTEEYKVPDGMVGFIIGRGGEQISRIQQESGCKIQIAPDSGGLPERSCMLTGTPESVQSAKRLLDQIVE [V3G] and RSSMTEEYKVPDGMVGFIIGRGGEQISRIQQESGCKIQIAPDSGGLPERSCMLTGTPESVQSAKRLLDQIVE [V3S] are within error of each other in abundance fitness: -0.086 ± 0.023 for the first, -0.087 ± 0.027 for the second.

Going from RSIMTEEYKVPDGMVGFIIGRGGEQISRIQQESGCKIQIAPDSGGLPERSCMLTGTPESVQSAKRLLDQIVE [V3I] to RSWMTEEYKVPDGMVGFIIGRGGEQISRIQQESGCKIQIAPDSGGLPERSCMLTGTPESVQSAKRLLDQIVE [V3W], the abundance fitness falls from 0.06 ± 0.037 to -0.084 ± 0.03.

RSNMTEEYKVPDGMVGFIIGRGGEQISRIQQESGCKIQIAPDSGGLPERSCMLTGTPESVQSAKRLLDQIVE [V3N] and RSKMTEEYKVPDGMVGFIIGRGGEQISRIQQESGCKIQIAPDSGGLPERSCMLTGTPESVQSAKRLLDQIVE [V3K] are within error of each other in abundance fitness: -0.001 ± 0.043 for the first, 0.03 ± 0.035 for the second.

RSPMTEEYKVPDGMVGFIIGRGGEQISRIQQESGCKIQIAPDSGGLPERSCMLTGTPESVQSAKRLLDQIVE [V3P] and RSAMTEEYKVPDGMVGFIIGRGGEQISRIQQESGCKIQIAPDSGGLPERSCMLTGTPESVQSAKRLLDQIVE [V3A] are within error of each other in abundance fitness: -0.092 ± 0.033 for the first, -0.058 ± 0.025 for the second.

RSTMTEEYKVPDGMVGFIIGRGGEQISRIQQESGCKIQIAPDSGGLPERSCMLTGTPESVQSAKRLLDQIVE [V3T] and RSMMTEEYKVPDGMVGFIIGRGGEQISRIQQESGCKIQIAPDSGGLPERSCMLTGTPESVQSAKRLLDQIVE [V3M] are within error of each other in abundance fitness: -0.005 ± 0.031 for the first, 0.017 ± 0.036 for the second.

RSCMTEEYKVPDGMVGFIIGRGGEQISRIQQESGCKIQIAPDSGGLPERSCMLTGTPESVQSAKRLLDQIVE [V3C] and RSFMTEEYKVPDGMVGFIIGRGGEQISRIQQESGCKIQIAPDSGGLPERSCMLTGTPESVQSAKRLLDQIVE [V3F] are within error of each other in abundance fitness: -0.048 ± 0.033 for the first, -0.073 ± 0.049 for the second.

First: RSDMTEEYKVPDGMVGFIIGRGGEQISRIQQESGCKIQIAPDSGGLPERSCMLTGTPESVQSAKRLLDQIVE [V3D]
Second: SSVMTEEYKVPDGMVGFIIGRGGEQISRIQQESGCKIQIAPDSGGLPERSCMLTGTPESVQSAKRLLDQIVE [R1S]
The abundance fitness of the first is higher: -0.042 ± 0.036 for the first, -0.113 ± 0.028 for the second.

Work on QSVMTEEYKVPDGMVGFIIGRGGEQISRIQQESGCKIQIAPDSGGLPERSCMLTGTPESVQSAKRLLDQIVE [R1Q] yielded an abundance fitness of -0.513 ± 0.14.
